Data from article PMC9409278, “Conformational Changes of α-Crystallin Proteins Induced by Heat Stress” (International Journal of Molecular Sciences, 2022).

Biological target: the molecule itself
Test: SEC; HiPrep Sephacryl S-300 HR 16/60 column, 20 mM phosphate buffer, pH 7.4, 150 mM NaCl; each crystallin alone

B1: αB crystallin (natural protein, human, UniProt P02511 1-175, looked up)
chain: MDIAIHHPWIRRPFFPFHSPSRLFDQFFGEHLLESDLFPTSTSLSPFYLRPPSFLRAPSWFDTGLSEMRLEKDRFSVNLDVKHFSPEELKVKVLGDVIEVHGKHEERQDEHGFISREFHRKYRIPADVDPLTITSSLSSDGVLTVNGPRKQVSGPERTIPITREEKPAVTAAPKK
notes: αB crystallin, human, open reading frame of the full-length gene in pET28; Homo-oligomer in solution; No removal of the His tag is mentioned; also called alpha-B crystallin; source: E. coli BL21(DE3), purified (Ni-NTA, size-exclusion chromatography)
binding result: binds
